The values below are quoted from earlier work in PMC7699679.

Some targets named below: C5aR (Homo sapiens) (UniProt P21730); CCR2 (Homo sapiens) (UniProt P41597); CXCR1 (Homo sapiens) (UniProt P25024); CXCR2 (Homo sapiens) (UniProt P25025).
Chain of UniProt P21730 (P21730 whole entry): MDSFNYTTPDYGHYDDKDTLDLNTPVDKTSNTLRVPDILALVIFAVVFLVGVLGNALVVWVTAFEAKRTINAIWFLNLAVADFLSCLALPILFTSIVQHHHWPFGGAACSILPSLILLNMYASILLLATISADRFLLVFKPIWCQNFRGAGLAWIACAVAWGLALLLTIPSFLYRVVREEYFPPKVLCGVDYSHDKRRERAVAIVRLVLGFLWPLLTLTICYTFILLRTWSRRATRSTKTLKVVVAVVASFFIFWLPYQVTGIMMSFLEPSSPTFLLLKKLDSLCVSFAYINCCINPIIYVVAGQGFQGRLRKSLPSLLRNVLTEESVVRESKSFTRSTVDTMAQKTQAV
Chain of UniProt P25024 (P25024 whole entry): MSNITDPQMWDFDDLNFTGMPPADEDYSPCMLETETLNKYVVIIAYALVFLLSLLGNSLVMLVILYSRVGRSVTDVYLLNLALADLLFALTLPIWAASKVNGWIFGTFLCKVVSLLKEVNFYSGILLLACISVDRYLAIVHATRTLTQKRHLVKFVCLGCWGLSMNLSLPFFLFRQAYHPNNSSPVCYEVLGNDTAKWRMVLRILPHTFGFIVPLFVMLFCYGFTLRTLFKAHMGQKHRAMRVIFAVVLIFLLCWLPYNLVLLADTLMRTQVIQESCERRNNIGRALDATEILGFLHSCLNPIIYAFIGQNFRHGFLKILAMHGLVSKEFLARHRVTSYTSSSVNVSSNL
Chain of UniProt P41597 (P41597 whole entry): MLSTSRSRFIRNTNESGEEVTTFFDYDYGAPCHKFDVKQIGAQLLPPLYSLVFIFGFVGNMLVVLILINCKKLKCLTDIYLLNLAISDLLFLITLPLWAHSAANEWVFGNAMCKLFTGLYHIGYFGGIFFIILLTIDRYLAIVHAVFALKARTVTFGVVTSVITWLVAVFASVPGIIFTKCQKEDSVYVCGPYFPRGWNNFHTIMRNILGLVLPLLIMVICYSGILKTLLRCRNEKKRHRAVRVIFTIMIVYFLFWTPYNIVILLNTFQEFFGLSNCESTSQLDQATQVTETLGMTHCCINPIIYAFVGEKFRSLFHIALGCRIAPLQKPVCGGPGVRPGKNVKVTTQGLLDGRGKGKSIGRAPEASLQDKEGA
Chain of UniProt P25025 (P25025 whole entry): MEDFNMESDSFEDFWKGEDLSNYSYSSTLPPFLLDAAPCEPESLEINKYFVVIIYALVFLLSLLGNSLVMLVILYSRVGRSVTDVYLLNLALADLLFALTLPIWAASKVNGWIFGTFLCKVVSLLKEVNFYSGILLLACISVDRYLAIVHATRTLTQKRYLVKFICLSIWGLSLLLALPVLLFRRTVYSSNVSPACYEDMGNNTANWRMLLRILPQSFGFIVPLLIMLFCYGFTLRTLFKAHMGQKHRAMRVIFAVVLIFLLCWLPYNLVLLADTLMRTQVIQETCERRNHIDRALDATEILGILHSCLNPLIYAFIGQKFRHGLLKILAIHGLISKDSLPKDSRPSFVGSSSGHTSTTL

In the case of HlgC (from UniProt Q07227), in the data set with C5aR (Homo sapiens), the Kd was 5.64 nM.
With HlgA (from UniProt Q5HDD6), the equilibrium dissociation constant (Kd) with CCR2 (Homo sapiens) was 3.51 nM; with CXCR1 (Homo sapiens) it was 5.69 nM; with CXCR2 (Homo sapiens) it was 27.2 nM.

A word on the Kd: it is the constant that tells how readily two partners part at equilibrium.
